Patent US20140227293A1 (TRUSTEES OF BOSTON UNIVERSITY, published 2014)

Biological target: the molecule itself
Assay: BS3 chemical cross-linking of PAE cells expressing IGPR-1 (confluent versus sparse), anti-IGPR-1 Western blot
Procedure: To determine whether IGPR-1 is involved in cell-cell interaction inventors subjected PAE cells expressing IGPR-1 and ΔN-IGPR-1 to aggregation/cell-cell adhesion assay. […] To further establish role of IGPR-1 in cell-cell interaction, the inventors investigated dimerization of IGPR-1 particularly its possible trans-dimerization. Inventors reasoned that if cells are plated in confluent condition, IGPR-1 could form trans-dimerization and possibly cis-dimerization (see FIG. 9C). However, plating the cells in a sparse condition, IGPR-1 will be less able to form trans-dimerization.

B1: immunoglobulin containing and proline rich receptor-1 (IGPR-1), human, full length, ectopically expressed in PAE cells (receptor)
chain: LSVQQGPNLLQVRQGSQATLVCQVDQATAWERLRVKWTKDGAILCQPYITNGSLSLGVCGPQGRLSWQAPSHLTLQLDPVSLNHSGAYVCWAAVEIPELEEAEGNITRLFVDPDDPTQNRNRIASFPGFLFVLLGVGSMGVAAIVWGAWFWGRRSCQQRDSGNSPGNAFYSNVLYRPRGPPKKSEDCSGEGKDQRGQSIYSTSFPQPAPRQPHLASRPCPSPRPCPSPRPGHPVSMVRVSPRPSPTQQPRPKGFPKVGEE
modifications: N-glycosylated (apparent 55 kDa, 31 kDa after PNGase F)
notes: Expressed from the retroviral vector pMSCV.puro in PAE (porcine aortic endothelial) cells; Used on intact cells (aggregation, adhesion, BS3 cross-linking) and as whole cell lysate (GST pull-down, co-immunoprecipitation, Western blot); also called IGRP-1; TMIGD2
binding result: binds
